The values that follow come from publication PMC8379094 (Cell Reports, 2021).

Experiment [1] concerns the target SARS-CoV-2 spike S1 subunit, wild type, recombinant (SARS-CoV-2, WT (QHD43416, Wuhan-Hu-1), UniProt P0DTC2). In words: BLI.
Experiment [2] concerns the target SARS-CoV-2 spike receptor binding domain, wild type, recombinant (Severe acute respiratory syndrome …, UniProt P0DTC2). The experiment can be described thus: BLI. A general note: In BLI a coated tip is dipped into the sample, and binding shifts an interference pattern.

B1: BL6 mAb (antibody, V domains shown)
VH: EVQLVESGGGLVQPGRSLRLSCEVSGFTFEDYDMQWVRQAPGKGLEWVSGISWNGGIIGYGDSVKGRFTISRDNAKNSLYLQMNSLRGEDTALYSCAKALHSGDDSGQQAFDIWGQGTMVTVSS
VL: SYVLTQPPSVSVAPGQTAKITCGENNIGRRSVHWYQQKPGQAPVLVIFNDSDRPSGIPERFSGSMSGNTATLTISRVEAGDEADYYCQVWDSGSDHVVFGGGTELTVL
As to B1, the binding result in experiment [1] and in experiment [2] was “binds” each time.
